# Measurements reported in US9539315B2, “Methods, agents and peptides for inhibiting matrix metalloproteinase-2 signaling” (New York University, priority 2011, dated 2017).
# Entries after “also recorded” stand apart in the source; their conditions may differ.
# B1: matrix metalloproteinase-2 (protein)
# chain: YNFFPRKPKWDKNQITYRIIGYTPDLDPETVDDAFARAFQVWSDVTPLRFSRIHDGEADIMINFGRWEHGDGYPFDGKDGLLAHAFAPGTGVGGDSHFDDDELWTLGEGQVVRVKYGNADGEYCKFPFLFNGKEYNSCTDTGRSDGFLWCSTTYNFEKDGKYGFCPHEALFTMGGNAEGQPCKFPFRFQGTSYDSCTTEGRTDGYRWCGTTEDYDRDKKYGFCPETAMSTVGGNSEGAPCVFPFTFLGNKYESCTSAGRSDGKMWCATTANYDDDRKWGFCPDQGYSLFLVAAHEFGHAMGLEHSQDPGALMAPIYTYTKNFRLSQDDIKGIQELYGASPDIDLGTGPTPTLGPVTPEICKQDIVFDGIAQIRGEIFFFKDRFIWRTVTPRDKPMGPLLVATFWPELPEKIDAVYEAPQEEKAVFFAGNEYWIYSASTLERGYPKPLTSLGLPPDVQRVDAAFNWSKNKKTYIFAGDKFWRYNEVKKKMDPGFPKLIADAWNAIPDNLDAVVDLQGGGHSYFFKGAYYLKLENQSLKSVKFGSIKSDWLGC
# How the values were obtained:
# NF-κB pathway = test: p50 nuclear translocation / NF-κB activation in DCs (ELISA of cytosolic and nuclear fractions); format: cell-based, human
# Experimental: A) DCs were exposed to MMP-2 […] or zymosan […], a known activator of NF-κB that acts via TLR2, for the indicated time. Cytosolic and nuclear fractions were isolated and p50 contents were measured by ELISA. […] C) OX40L over-expression on DCs induced by MMP-2 is inhibited by an inhibitor of NEMO, the NEMO binding domain (NBD) peptide, but not by the corresponding negative control, a NBD mutant.
# (§1) PBMCs were purified from healthy-(HD) or cord blood- (CB) donors and plated at 40×10^6 cells/10 mL/dish in complete IMDM with 5% PHS. Cells were allowed to adhere for 2 h at 37° C. Non-adherent cells were removed. The monocyte-enriched fraction was supplemented with 100 UI/mL rhGMCSF and 300 UI/mL rhIL-4 (R&D Systems) on days 0, 2 and 4. Immature DCs were harvested on day 5 and matured using poly(I:C) at 5 μg/mL/10^6 DCs (Amersham). Secretion of IL-12p70, TNFα, IL-1β, IL-6, IL-8 and IL-10 was assessed on both immature and mature DCs using the Human Inflammatory Cytokine Cytometric Bead Array (BD Pharmingen).
# Activation of T cell clones (10,000 cells/100 μL/well), polyclonal T cell populations (100,000 cells/100 μL/well), and DCs (50,000 cells/100 μL/well) can be determined by ELISA. IFNγ (BioSource), TNFα (BioSource), IL-4 (BioSource), IFNβ (VeriKine; PBL interferon source) and MCP-3 (DuoSet; R&D Systems) contents in supernatants were measured according to the manufacturer's instructions. p50 was measured in cytosolic and nuclear fractions (fractions separated using the nuclear separation kit from Active motif) by ELISA (Active motif).
# DCs = test: Inflammatory cytokine secretion by DCs (cytokine bead array); format: cell-based, human; details: MMP-2 0.5 and 5 mg/ml, active or inactive; supernatants after eighteen hours
# Experimental: DCs were exposed to MMP-2 (0.5 and 5 mg/ml) in various forms: active, heat-inactivated (HI), inhibited by a specific inhibitor (IMMP-2), PEX (last third of MMP-2, amino acids 445-635 of SEQ ID NO: 1), overlapping peptides (20-mer) spanning MMP-2, or controls. Eighteen hours later, supernatants were harvested and TNFα, IL-6, IL-8 and […] levels were measured by cytokine bead array.
# as §1
# TLR2/MyD88 complex = molecular target: T1, TLR2/MyD88 complex (Homo sapiens, UniProt O60603); test: Co-immunoprecipitation of MMP-2 and TLR2 from moDCs or TLR2-transfected HEK cells; format: binding; details: n=3
# T1 construct: endogenous in cells; host or cells: human monocyte-derived dendritic cells (moDCs); alternatively TLR2-transfected HEK cells
# Experimental: 10^6 moDCs/lane or TLR2-transfected HEK cells were incubated for 20 min with or without 5 μg/ml MMP-2 or MMP-9 before being lysed. TLR2 A) and MMP-2 B) were immunoprecipitated using specific antibodies and protein G-agarose. Western blots for MMP-2 (≈70 kD), TLR2 (≈85 kD) and MyD88 (≈35 kD) were then performed. C and D) depict band intensities (mean of 3 independent experiments±s.d.), which are represented as a percentage of the band intensity corresponding to untreated cells. Two-tailed Student's t-tests were used to compare MMP-2- to MMP-9-treated cells. p values≦0.05 (*) were considered statistically significant.
# To assess whether MMP-2 directly interacts with TLR2, moDCs and TLR2-transfected HEK cells were utlized. […] Similarly, TLR2 and MyD88 immunoprecipitated (n=3; p<0.05 compared to MMP-9-treated cells) with MMP-2 when moDCs were pre-treated with MMP-2 (FIG. 8B,D).
# T1 sequence (O60603 21-784): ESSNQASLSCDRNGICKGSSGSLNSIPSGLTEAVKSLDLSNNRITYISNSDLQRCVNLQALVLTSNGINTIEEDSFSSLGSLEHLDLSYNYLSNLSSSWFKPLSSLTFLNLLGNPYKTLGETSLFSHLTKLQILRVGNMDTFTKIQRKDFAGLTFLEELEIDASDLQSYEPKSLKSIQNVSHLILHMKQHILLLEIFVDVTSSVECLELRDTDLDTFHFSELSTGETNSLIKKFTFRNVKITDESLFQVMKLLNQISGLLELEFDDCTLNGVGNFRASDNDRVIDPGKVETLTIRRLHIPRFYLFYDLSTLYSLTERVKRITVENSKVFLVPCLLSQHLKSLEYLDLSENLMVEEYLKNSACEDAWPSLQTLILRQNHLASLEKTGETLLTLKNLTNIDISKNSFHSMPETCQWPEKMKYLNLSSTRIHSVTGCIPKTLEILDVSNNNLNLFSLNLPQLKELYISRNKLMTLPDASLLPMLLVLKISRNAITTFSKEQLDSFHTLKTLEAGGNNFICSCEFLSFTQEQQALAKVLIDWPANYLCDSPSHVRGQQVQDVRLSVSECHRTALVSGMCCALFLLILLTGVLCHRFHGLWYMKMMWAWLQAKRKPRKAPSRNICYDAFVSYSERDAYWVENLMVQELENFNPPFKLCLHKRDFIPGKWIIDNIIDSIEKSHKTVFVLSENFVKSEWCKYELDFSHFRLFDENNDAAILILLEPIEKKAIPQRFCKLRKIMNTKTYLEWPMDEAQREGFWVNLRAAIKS
# T1 sequence (Q99836 whole entry partner): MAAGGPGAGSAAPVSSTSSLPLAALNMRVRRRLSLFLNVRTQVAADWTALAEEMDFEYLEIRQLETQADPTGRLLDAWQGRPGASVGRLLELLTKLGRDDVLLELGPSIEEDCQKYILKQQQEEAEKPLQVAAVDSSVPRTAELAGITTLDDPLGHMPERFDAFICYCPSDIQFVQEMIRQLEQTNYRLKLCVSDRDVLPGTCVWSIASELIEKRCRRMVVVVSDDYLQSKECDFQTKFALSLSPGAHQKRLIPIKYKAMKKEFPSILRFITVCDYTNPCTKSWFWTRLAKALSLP
molecule,measurement,setting,value
B1,p50 translocation in the nucleus,"NF-κB pathway; DCs exposed to MMP-2 (5 μm/ml) or zymosan (10 μm/ml), p50 by ELISA",triggers p50 translocation in the nucleus; also recorded: induce p50 translocation in the nucleus after 30 min
same,NF-κB activation in DCs,NF-κB pathway; active vs heat-inactivated MMP-2,"NF-κB activation (FIGS. 2A, 2B and 3) at similar levels"
same,"inflammatory cytokine secretion by DCs (TNFα, IL-6, IL-8, IL-1β)",DCs,secrete inflammatory cytokines; also recorded: significantly expressed
same,MMP-2 and MyD88 immunoprecipitated with TLR2,TLR2/MyD88 complex; cells pre-treated 20 min with 5 μg/ml MMP-2 (active or inactive) or MMP-9,immunoprecipitated
same,TLR2 and MyD88 immunoprecipitated with MMP-2,TLR2/MyD88 complex; moDCs pre-treated with MMP-2,immunoprecipitated
